Laboratory results published in patent US7314753.

Legend:
[1] = molecular target: CEA (carcino-embryonic antigen) (UniProt P06731); experiment: enzyme activity specificity test, CEA-coated plate; pH 5.0 eluate 1:3, dilution 1:32
[2] = molecular target: CEA (carcino-embryonic antigen) (UniProt P06731); experiment: enzyme activity specificity test, CEA-coated plate; void volume of affinity column 1:1, dilution 1:256
[3] = molecular target: CEA (carcino-embryonic antigen) (UniProt P06731); experiment: enzyme activity specificity test, CEA-coated plate; pH 5.0 eluate ultraconcentrate 1:10, dilution 1:8
[4] = molecular target: CEA (carcino-embryonic antigen) (UniProt P06731); experiment: enzyme activity specificity test, CEA-coated plate; void volume of affinity column 1:1, dilution 1:32
[5] = molecular target: CEA (carcino-embryonic antigen) (UniProt P06731); experiment: enzyme activity specificity test, CEA-coated plate; pH 5.0 eluate 1:3, dilution 1:128
[6] = molecular target: CEA (carcino-embryonic antigen) (UniProt P06731); experiment: enzyme activity specificity test, CEA-coated plate; pH 5.0 eluate ultraconcentrate 1:10, dilution 1:32
[7] = molecular target: CEA (carcino-embryonic antigen) (UniProt P06731); experiment: enzyme activity specificity test, CEA-coated plate; pH 5.0 eluate 1:3, dilution 1:16
[8] = molecular target: CEA (carcino-embryonic antigen) (UniProt P06731); experiment: enzyme activity specificity test, CEA-coated plate; pH 5.0 eluate ultrafiltrate 1:1, dilution 1:256
[9] = molecular target: CEA (carcino-embryonic antigen) (UniProt P06731); experiment: enzyme activity specificity test, CEA-coated plate; pH 5.0 eluate ultraconcentrate 1:10, dilution 1:4
[10] = molecular target: CEA (carcino-embryonic antigen) (UniProt P06731); experiment: enzyme activity specificity test, CEA-coated plate; void volume of affinity column 1:1, dilution 1:4
[11] = molecular target: CEA (carcino-embryonic antigen) (UniProt P06731); experiment: enzyme activity specificity test, CEA-coated plate; pH 5.0 eluate ultraconcentrate 1:10, dilution 1:16
[12] = molecular target: CEA (carcino-embryonic antigen) (UniProt P06731); experiment: enzyme activity specificity test, CEA-coated plate; pH 5.0 eluate ultraconcentrate 1:10, dilution 1:2
[13] = molecular target: CEA (carcino-embryonic antigen) (UniProt P06731); experiment: enzyme activity specificity test, CEA-coated plate; pH 5.0 eluate 1:3, dilution 1:64
[14] = molecular target: CEA (carcino-embryonic antigen) (UniProt P06731); experiment: enzyme activity specificity test, CEA-coated plate; pH 5.0 eluate 1:3, dilution 1:256
[15] = molecular target: CEA (carcino-embryonic antigen) (UniProt P06731); experiment: enzyme activity specificity test, CEA-coated plate; pH 5.0 eluate ultrafiltrate 1:1, dilution 1:16
[16] = molecular target: CEA (carcino-embryonic antigen) (UniProt P06731); experiment: enzyme activity specificity test, CEA-coated plate; void volume of affinity column 1:1, dilution 1:64
[17] = molecular target: CEA (carcino-embryonic antigen) (UniProt P06731); experiment: enzyme activity specificity test, CEA-coated plate; void volume of affinity column 1:1, dilution 1:16
[18] = molecular target: CEA (carcino-embryonic antigen) (UniProt P06731); experiment: enzyme activity specificity test, CEA-coated plate; pH 5.0 eluate 1:3, dilution 1:8
[19] = molecular target: CEA (carcino-embryonic antigen) (UniProt P06731); experiment: enzyme activity specificity test, CEA-coated plate; disrupted cell suspension 1:3, dilution 1:64
[20] = molecular target: CEA (carcino-embryonic antigen) (UniProt P06731); experiment: enzyme activity specificity test, CEA-coated plate; pH 5.0 eluate ultraconcentrate 1:10, dilution 1:128
[21] = molecular target: CEA (carcino-embryonic antigen) (UniProt P06731); experiment: enzyme activity specificity test, CEA-coated plate; void volume of affinity column 1:1, dilution 1:2
[22] = molecular target: CEA (carcino-embryonic antigen) (UniProt P06731); experiment: enzyme activity specificity test, CEA-coated plate; disrupted cell suspension 1:3, dilution 1:128
[23] = molecular target: CEA (carcino-embryonic antigen) (UniProt P06731); experiment: enzyme activity specificity test, CEA-coated plate; void volume of affinity column 1:1, dilution 1:128
[24] = molecular target: CEA (carcino-embryonic antigen) (UniProt P06731); experiment: enzyme activity specificity test, CEA-coated plate; pH 5.0 eluate ultrafiltrate 1:1, dilution 1:8
[25] = molecular target: CEA (carcino-embryonic antigen) (UniProt P06731); experiment: enzyme activity specificity test, CEA-coated plate; void volume of affinity column 1:1, dilution 1:8
[26] = molecular target: CEA (carcino-embryonic antigen) (UniProt P06731); experiment: enzyme activity specificity test, CEA-coated plate; pH 5.0 eluate ultraconcentrate 1:10, dilution 1:64
[27] = molecular target: CEA (carcino-embryonic antigen) (UniProt P06731); experiment: enzyme activity specificity test, CEA-coated plate; pH 5.0 eluate 1:3, dilution 1:2
[28] = molecular target: CEA (carcino-embryonic antigen) (UniProt P06731); experiment: enzyme activity specificity test, CEA-coated plate; disrupted cell suspension 1:3, dilution 1:8
[29] = molecular target: CEA (carcino-embryonic antigen) (UniProt P06731); experiment: enzyme activity specificity test, CEA-coated plate; disrupted cell suspension 1:3, dilution 1:32
[30] = molecular target: CEA (carcino-embryonic antigen) (UniProt P06731); experiment: enzyme activity specificity test, CEA-coated plate; disrupted cell suspension 1:3, dilution 1:256
[31] = molecular target: CEA (carcino-embryonic antigen) (UniProt P06731); experiment: enzyme activity specificity test, CEA-coated plate; pH 5.0 eluate ultraconcentrate 1:10, dilution 1:256
[32] = molecular target: CEA (carcino-embryonic antigen) (UniProt P06731); experiment: enzyme activity specificity test, CEA-coated plate; disrupted cell suspension 1:3, dilution 1:4
[33] = molecular target: CEA (carcino-embryonic antigen) (UniProt P06731); experiment: enzyme activity specificity test, CEA-coated plate; pH 5.0 eluate ultrafiltrate 1:1, dilution 1:64
[34] = molecular target: CEA (carcino-embryonic antigen) (UniProt P06731); experiment: enzyme activity specificity test, CEA-coated plate; pH 5.0 eluate ultrafiltrate 1:1, dilution 1:4
[35] = molecular target: CEA (carcino-embryonic antigen) (UniProt P06731); experiment: enzyme activity specificity test, CEA-coated plate; pH 5.0 eluate ultrafiltrate 1:1, dilution 1:32
[36] = molecular target: CEA (carcino-embryonic antigen) (UniProt P06731); experiment: enzyme activity specificity test, CEA-coated plate; disrupted cell suspension 1:3, dilution 1:16
[37] = molecular target: CEA (carcino-embryonic antigen) (UniProt P06731); experiment: enzyme activity specificity test, CEA-coated plate; pH 5.0 eluate ultrafiltrate 1:1, dilution 1:128
[38] = molecular target: CEA (carcino-embryonic antigen) (UniProt P06731); experiment: enzyme activity specificity test, CEA-coated plate; pH 5.0 eluate ultrafiltrate 1:1, dilution 1:2
[39] = molecular target: CEA (carcino-embryonic antigen) (UniProt P06731); experiment: enzyme activity specificity test, CEA-coated plate; disrupted cell suspension 1:3, dilution 1:2
[40] = molecular target: CEA (carcino-embryonic antigen) (UniProt P06731); experiment: enzyme activity specificity test, CEA-coated plate; pH 5.0 eluate 1:3, dilution 1:4

UniProt P06731, sequence (P06731 35-685 limits assumed): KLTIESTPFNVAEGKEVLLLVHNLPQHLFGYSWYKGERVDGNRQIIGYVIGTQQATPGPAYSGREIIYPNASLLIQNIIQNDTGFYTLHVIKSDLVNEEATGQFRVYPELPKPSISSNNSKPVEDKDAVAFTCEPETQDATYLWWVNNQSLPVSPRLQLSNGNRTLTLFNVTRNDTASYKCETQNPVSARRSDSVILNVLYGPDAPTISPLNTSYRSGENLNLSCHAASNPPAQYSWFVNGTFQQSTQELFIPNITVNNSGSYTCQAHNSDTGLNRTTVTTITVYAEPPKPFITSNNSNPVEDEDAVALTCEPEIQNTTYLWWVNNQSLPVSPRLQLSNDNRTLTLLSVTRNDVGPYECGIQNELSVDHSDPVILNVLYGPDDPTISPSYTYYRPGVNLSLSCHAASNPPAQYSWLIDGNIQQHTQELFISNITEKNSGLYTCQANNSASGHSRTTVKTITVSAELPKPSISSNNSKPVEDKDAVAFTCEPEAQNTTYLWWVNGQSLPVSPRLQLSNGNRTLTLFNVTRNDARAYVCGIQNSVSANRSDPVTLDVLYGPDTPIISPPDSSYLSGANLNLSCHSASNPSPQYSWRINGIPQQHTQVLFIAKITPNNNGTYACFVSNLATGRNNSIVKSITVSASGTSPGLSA

B1: Fab BW 431/26-E. coli β-glucuronidase fusion protein (protein)
heavy: MEVQLQESGPGLVRPSQTLSLTCTVSGFTISSGYSWHWVRQPPGRGLEWIGYIQYSGITNYNPSLKSRVTMLVDTSKNQFSLRLSSVTAADTAVYYCAREDYDYHWYFDVWGQGSLVTVTVSSASTKGPSVFPLAPCSRSTSGGTAALGCLVKDYFPEPVTVSWNSGALTSGVHTFPAVLQSSGLYSLSSVVTVPSSSLGTQTYTCNVNHKPSNTKVDKRVELGSGSGSMVRPVETPTREIKKLDGLWAFSLDRENCGIDQRWWESALQESRAIAVPGSFNDQFADADIRNYAGNVWYQREVFIPKGWAGQRIVLRFDAVTHYGKVWVNNQEVMEHQGGYTPFEADVTPYVIAGKSVRITVCVNNELNWQTIPPGMVITDENGKKKQSYFHNFFNYAGIHRSVMLYTTPNTWVDDITVVTHVAQDCNHASVDWQVVANGDVSVELRDADQQVVATGQGTSGTLQVVNPHLWQPGEGYLYELCVTAKSQTECDIYPLRVGIRSVAVKGEQFLINHKPFYFTGFGRHEDADLRGKGFDNVLMVHDHALMDWIGANSYRTSHYPYAEEMLDWADEHGIVVIDETAAVGFNLSLGIGFEAGNKPKELYSEEAVNGETQQAHLQAIKELIARDKNHPSVVMWSIANEPDTRPQGAREYFAPLAEATRKLDPTRPITCVNVMFCDAHTDTISDLFDVLCLNRYYGWYVQSGDLETAEKVLEKELLAWQEKLHQPIIITEYGVDTLAGLHSMYTDMWSEEYQCAWLDMYHRVFDRVSAVVGEQVWNFADFATSQGILRVGGNKKGIFTRDRKPKSAAFLLQKRWTGMNFGEKPQQGGKQ
light: MDIQMTQSPSSLSASVGDRVTITCSTSSSVSYMHWYQQKPGKAPKLLIYSTSNLASGVPSRFSGSGSGTDFTFTISSLQPEDIATYYCHQWSSYPTFGQGTKVEIKRTVAAPSVFIFPPSDEQLKSGTASVVCLLNNFYPREAKVQWKVDNALQSGNSQESVTEQDSKDSTYSLSSTLTLSKADYEKHKVYACEVTHQGLSSPVTKSFNRGEC
relative fluorescence units (FU) [1]: 1980 FU | relative fluorescence units (FU) [2]: 46.3 FU | relative fluorescence units (FU) [3]: 8040 FU | relative fluorescence units (FU) [4]: 525 FU | relative fluorescence units (FU) [5]: 302 FU | relative fluorescence units (FU) [6]: 5800 FU | relative fluorescence units (FU) [7]: 4240 FU | relative fluorescence units (FU) [8]: 19.4 FU | relative fluorescence units (FU) [9]: 8110 FU | relative fluorescence units (FU) [10]: 5230 FU | relative fluorescence units (FU) [11]: 7150 FU | relative fluorescence units (FU) [12]: 7900 FU | relative fluorescence units (FU) [13]: 816 FU | relative fluorescence units (FU) [14]: 114 FU | relative fluorescence units (FU) [15]: 52.3 FU | relative fluorescence units (FU) [16]: 214 FU | relative fluorescence units (FU) [17]: 1480 FU | relative fluorescence units (FU) [18]: 6360 FU | relative fluorescence units (FU) [19]: 2510 FU | relative fluorescence units (FU) [20]: 1650 FU | relative fluorescence units (FU) [21]: 6550 FU | relative fluorescence units (FU) [22]: 1020 FU | relative fluorescence units (FU) [23]: 86.2 FU | relative fluorescence units (FU) [24]: 90.2 FU | relative fluorescence units (FU) [25]: 3220 FU | relative fluorescence units (FU) [26]: 3620 FU | relative fluorescence units (FU) [27]: 7780 FU | relative fluorescence units (FU) [28]: 7530 FU | relative fluorescence units (FU) [29]: 4560 FU | relative fluorescence units (FU) [30]: 422 FU | relative fluorescence units (FU) [31]: 666 FU | relative fluorescence units (FU) [32]: 8150 FU | relative fluorescence units (FU) [33]: 25.8 FU | relative fluorescence units (FU) [34]: 173 FU | relative fluorescence units (FU) [35]: 38.8 FU | relative fluorescence units (FU) [36]: 6630 FU | relative fluorescence units (FU) [37]: 23.5 FU | relative fluorescence units (FU) [38]: 74.7 FU | relative fluorescence units (FU) [39]: 8180 FU | relative fluorescence units (FU) [40]: 7570 FU
